From patent US20200230057A1, “Pharmaceutical Compositions, Methods for Preparation using Lipid Vesicle Particles of Defined Size, and Uses Thereof” (IMMUNOVACCINE TECHNOLOGIES INC., priority 2017, published 2020)

Assay: HPLC peptide recovery before and after freeze-drying
Conditions: set specification 0.40-0.60 mg/mL for neoantigens, 0.2-0.3 mg/mL for A16L
Description: The composition prepared as described in Example 4, containing 14 neoantigens and the A16L T-helper peptide, was subjected to HPLC analysis to evaluate the peptide stability before and after freeze-drying.
Experimental Conditions: • IPQC Solutions: Dilute the IPQC solutions with Methanol and then with Mobile Phase A, e.g. as follows: • 100 mg In-Process Testing Solution • +450 μL Methanol, mix • +450 μL Mobile Phase A, mix • Mix by vortexing. Samples containing lipids will be slightly hazy. Dilution factor=10×. • Lyophilisates (for Release and Stability Testing): Solubilize the lyophilisate with Ultrapure lab water. Add 3-4 glass beads and vortex vigorously for 1 minute to assure complete homogenization. Dilute the solution with Methanol and subsequently with Mobile Phase A, e.g. as follows: • 100 mg In-Process Testing Solution • +450 μL Methanol, mix • +450 μL Mobile Phase A, mix • Mix by vortexing. The sample preparations will be slightly hazy. Dilution factor=20×.
The dried preparations were solubilized in water for HPLC analysis. T=0 is the day in which the samples were removed from the freeze-dryer. T=1M and T=3M are 1 month and 3 months after T=0, respectively, with the dried preparation having been stored at −20° C.
In the case of “IPSGTTILNCFHDVLSGKLSGGSPGVP (Mut29A) [Mut 29a]”, the “Peptide concentration relative to set specification” value is reported as “outside the set specification”.
With “CGTAFFINFIAIYHHASRAIPFGTMVA (Mut36) [Mut 36]” the “Peptide concentration relative to set specification” value was “consistently outside the set specification”.
For “VVDRNPQFLDPVLAYLMKGLCEKPLAS (Mut17) [Mut 17]”, the “Peptide concentration relative to set specification” value was “outside the set specification”.
